Reference: article PMC7861550

B1: unnamed (parent)
chain: MDIDPYKEFGATVELLSFLPSDFFPSVRDLLDTASALYREALESPEHCSPHHTALRQAILCWGELMTLATWVGVNLEDPASRDLVVSYVNTNMGLKFRQLLWFHISCLTFGRETVIEYLVSFGVWIRTPPAYRPPNAPILSTLPETTVVRRRGRSPRRRTPSPRRRRSQSPRRRRSQSRESQC

Variants of: B1
Assay: capsid assembly (Ca assem)
Settings: with partner chain of the complex shown

| Variant | ratio to parent |
| --- | --- |
| chain 1 L143I | 0.97 |
| chain 1 S141R | 1.16 |
| chain 1 S141A | 1.03 |
| chain 1 S141T V148I V149I | 0.98 |
| chain 1 T146A T147A | 1.08 |
| chain 1 E145D | 1.05 |
| chain 1 L140A | 1.32 |
| chain 1 L143A | 1.05 |
| chain 1 T146D T147D | 1.06 |
| chain 1 S141D | 1.11 |
